Measurements taken from the RNAGym collection of RNA variant scans (doi:10.1073/pnas.2313332121).

B1: TPR t1 (parent)
chain: GACCAAUCUGCCCUCAGAGCUCGAGAACAUCUUCGGAUGCAGAGGAGGCAGGCUUCGGUGGCGCGAUAGCGCCAACGUCCUCAACCUCCAAUGCAUCCCACCACAUGAUGAUGCCUGAAGAGCCUUGGUUUUUUG

Variants of: B1
Assay: polymerase ribozyme fitness, log enrichment relative to wild type (log ratio); higher = more active; in vitro selection for triplet polymerase activity
Outline: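 PCR was used to build mutant libraries for each subunit of a heterodimeric triplet polymerase ribozyme, which were then transcribed. A single in vitro selection round, in triplicate, used a frozen incubation at −7 °C and recovered extended constructs by gel excision, streptavidin beads and RT-PCR. Fitness is the logarithm of genotype enrichment relative to wild-type enrichment, averaged over replicates with inverse-variance weights. The logarithm is base 2, and after Illumina sequencing only genotypes with ≥10 input reads and ≥1 read per output were kept.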

Row | Variant | polymerase ribozyme fitness (log ratio)
1 | A18U G113U C114U C124A U130C | -2.93
2 | A18U G117C | -4.12
3 | A18U G120A | -1.14
4 | A18U U21C G36A C114U | -3.69
5 | A18U U30A A37G A108U | -3.64
6 | A18U U55G C82G G120A | -3.38
7 | A18U U59G G60A | -4.56
8 | A18U U78G U96G | -4.41
9 | A18U U81A C114A | -3.7
10 | A18U U87G G120A | -1.48
11 | A18U U92G | -3.54
12 | G19A A29C U109A G120C | -5.43
13 | G19A A66U C101U | -4.61
14 | G19A C40U G45C G61C C124A | -3.57
15 | G19A C49U G113U | -2.65
16 | G19A C53A C101U | -2.73
17 | G19A C53U | -2.82
18 | G19A C56G U106A G113C | -1.09
19 | G19A C56U C115A | -3.68
20 | G19A C62A C82A G93U U112A | -2.13
21 | G19A C62A U78A U81A C101G G113U U130A | -6.38

Row | Variant | polymerase ribozyme fitness (log ratio)
22 | G19A C72U | -3.79
23 | G19A C72U A75U C114A | -2.05
24 | G19A C73A A105U C114U U116G | -5.41
25 | G19A C73U | -2.61
26 | G19A C76U C124U | -1.46
27 | G19A C101U | -3.3
28 | G19A C114A | -1.55
29 | G19A C124A U129C | -2.22
30 | G19A G47A C88U | -2.72
31 | G19A G48U C53G G58U U59A | -3.69
32 | G19A G60A C114A | -1.62
33 | G19A G61C | -4.27
34 | G19A G63A | -3.09
35 | G19A G63A A111G | -1.39
36 | G19A G69A | -4.57
37 | G19A G69U | -1.71
38 | G19A G77C | -2.48
39 | G19A G77U U81A C114A | -1.67
40 | G19A U32A A84U | -6.42
41 | G19A U38C G63U C114A A121G | -4.24
42 | G19A U54C C73G C82G C114G | -4.42

Row | Variant | polymerase ribozyme fitness (log ratio)
43 | G19A U78C C124A U129C | -1.77
44 | G19A U96A C114A G127U | -3.48
45 | G19A U109A | -5.74
46 | G19C A37U C124U | -1.48
47 | G19C A41C C70G G120U | -6.52
48 | G19C A84G | -3.14
49 | G19C C20A | -6.28
50 | G19C C22A C53G U59G C123A | -5.66
51 | G19C C22U A46C C114U | -5.79
52 | G19C C40A C85U U112A | -2.1
53 | G19C C40U G48U G110C | -6.52
54 | G19C C53A G93A C123U | -2.59
55 | G19C C62U C64U G120C | -2.12
56 | G19C C70U | -2.55
57 | G19C C72A C124A U129G | -0.719
58 | G19C C101A G120U C124A G135C | -3.1
59 | G19C G36A G48A C82U C124A | -3.64
60 | G19C G36C G71U U112G U116C | -3.91
61 | G19C G42C C124G | -0.406
62 | G19C G45A U78C C82G U112C | -1.42
63 | G19C G52A C88A U112G C114A | -6.11

Row | Variant | polymerase ribozyme fitness (log ratio)
64 | G19C G57A G69U C85G | -4.01
65 | G19C G63A U87C | -3.24
66 | G19C G63C | -2.72
67 | G19C G71U G120U G122A C123U | -3.78
68 | G19C G93A C104U U112C | -0.693
69 | G19C U55A C64U A66U C104U | -3.86
70 | G19C U78C G110C | -5.42
71 | G19U A41C G48U G120U | -4.33
72 | G19U A41U G71A | -5.44
73 | G19U A43U G60C C82G | -3.71
74 | G19U A46C | -3.44
75 | G19U A50U C124G | -2.97
76 | G19U A74U G113A | -2.19
77 | G19U A105U U106A G113C | -0.75
78 | G19U C53G | -2.76
79 | G19U C53G U54A G61A C124A G128A | -3.82
80 | G19U C73A C80U U112C C114A U126A | -1.24
81 | G19U C76A C85U C124G | -3.5
82 | G19U C88A | -2.97
83 | G19U C89U G120C | -2.25
84 | G19U C101A | -4.08
